From article PMC3985891 (Biochemistry, 2014)

Target: the molecule itself
Assay: SEC-MALS

B1: MVP-s (codon-optimized synthetic MVP, M. jannaschii voltage-gated protein), N-terminal His tag, from pET15b (natural protein, Methanococcus jannaschii, UniProt Q57603 1-209, looked up)
chain: MNLKDRRLKKIMEVLSLIFTFEIVASFILSTYNPPYQDLLIKLDYISIMFFTFEFIYNFYYVEDKAKFFKDIYNIVDAIVVIAFLLYSLQVFYSKAFLGLRVINLLRILVLLRIIKLRKLEENQALINFLTLLTICFIASCLIWIVESGVNPAINNFFDAFYFTTISITTVGYGDITPKTDAGKLIIIFSVLFFISGLITSLQKALKGD
- stoichiometry N: 4
